Molecular target: Recombinant soluble HA trimer of A/New Caledonia/20/1999 (H1N1 NC99) (Influenza A virus A/New …, strain)
Experiment: cryo-EM structure

| Binder | binding result |
| --- | --- |
| 310-39G10 Fab (Fab, V domains shown) VH: QVQLVQSGAEVKKPGSSVKVSCKASGGTFSRYTISWVRQAPGQGLEWMGRISPIAGLENYAQKFQGRVTITADISTSTAYMELSSLRSDDTAVYYCAGSSGYYQPPPYWGQGTLVTVSS VL: EIVLTQAPFSLSLSPGERATLSCRASQSVSSSSLAWYHQKPGQAPRLLIYGASSRATGIPDRFSGSGSGTDFTLTISRLEPEDFSLYYCQQYGSSPLTFGQGTRLEIK | binds |
| 310-63E6 Fab (Fab, V domains shown) VH: QVQLVQSGAEVKKPGSSVKVSCTASGGTFSTYQFSWVRQAPGQGLEWMGRIVPIQGMDYAQKFRGRVTITADKWTSTVYMEVTSLRSEDTAVYYCATSRSMYFYYQLDVWGRGTTVTVSS VL: EIVLTQSPGTLSLSPGERATVSCRASQSVTSTFLAWYQQRPGQAPRLLIYGASSRATGIPDRFSGSGSEADFTLTINRLEPEDFAVYYCQQYATSPWTFGQGTKVEIK | binds |

Source: publication PMC9474600 (Immunity, 2022)
